This passage reports Kd results from publication PMC8231982.

In test [1] the target is HIV-1 gp120 monomer, strain HxBc2 (HIV-1, strain HxBc2) (UniProt P04578). As to the kind of experiment: SPR. For orientation: In SPR one partner is held on a chip, and binding of the other changes the refractive index at the surface.
In test [2] the target is HA H3 top domain (not stated (Figure 2 shows HA of influenza A virus X-31)) (UniProt P03437). As to the kind of experiment: ELISA.

For “CVN2L0, engineered linker-free domain-swapped dimer of cyanovirin-N (designed binder)”, the Kd in test [1] turned out to be 49 nM. This counts as double-digit nanomolar.
In test [2], “SUMO-CVN2L0 fusion protein (designed binder)” returned a Kd of 554 nM.

Broadly, the Kd is the constant that tells how readily two partners part at equilibrium. Low readings indicate higher affinity, high ones lower affinity.
